Assay [1] relates to GSK3β sequestration in Rab5+ endosomes, PANC-1 cells. Kind of assay: Wnt-induced GSK3β within Rab5+ endosomes, PANC-1 cells. As to conditions: Rab5 Q79L, n = 10. The class given is cell-based, human. The protocol: (§1) PANC-1, AsPC-1, HEK293T, or HeLa cells were ﬁxed with 4% formaldehyde for 10-15 min and then blocked with 3% BSA and 0.1% Triton X-100 in PBS for 20 min at room temperature. Immunostaining was performed using the indicated antibody. Nuclei were counterstained with DAPI. Images were taken with a Leica Inverted Confocal SP8 (Leica, Germany).

In another assay the test system is GSK3β in MVBs. Kind of assay: Co-localization of GSK3β with Rab7 and CD63 (immunofluorescence). Type of assay: cell-based. The method, then: as §1
In another assay the test system is CyclinD1/Axin2/C-myc. Kind of assay: Wnt target gene expression (western blot, qRT-PCR). The class given is cell-based, human. The note with it: PANC-1 cells, EGF (100 ng/mL) or CQ (100 μM). The method, then: Whole-cell extracts were prepared with 1% sodium dodecyl sulfate lysis buffer with freshly added 1% proteinase inhibitor cocktail (Biomake, B14001) and 1 mM phenylmethylsulfonyl fluoride (PMSF, MCE, HY-B0496). Western blot was performed as described previously.[20]
Total RNA was extracted from cultured pancreatic cancer cells using Trizol reagent (Invitrogen) according to the manufacturer’s protocol. qRT-PCR was performed as previously described.^3 The mRNA expression level for each sample was normalized to the expression of GAPDH using the 2 ^-ΔΔct method^4 with three biological replicates of comparative qRT-PCR. The following primer sequences were used for qRT-PCR: GAPDH, (forward) 5′- […] -3′ and (reverse) 5′- […] -3′; CyclinD1, (forward) 5′- […] -3′ and (reverse) 5′- […] -3′; C-myc, (forward) 5′- […] -3′ and (reverse) 5′- […] -3′; Axin2, (forward) 5′- […] -3′ and (reverse) 5′- […] -3′; STYK1, (forward) 5′- […] -3′ and (reverse) 5′- […] -3′. Amplification was performed in an ABI Q3 real-time PCR system using a SYBR Green master mix (YEASEN, 11201ES08).
A general note: Immunoblotting shows a protein as a band on a membrane.

The subject of assay [2] is β-catenin/TCF4 transcriptional activity. The assay is described as follows: 7TGC reporter assay. The note with it: PANC-1 cells, EGF (100 ng/mL) or CQ (100 μM). The class given is cell-based, human. For orientation: Reporter assays use an easily measured gene product as a stand-in for the process of interest.
From the text: The PCR products of STYK1, GSK3β, and Axin1 were cloned into pcDNA3.1-3×HA, pCMV-3×Flag (Sigma, E4401), and pCMV-mCherry (constructed by our lab) respectively. […] To make STYK1, β-catenin, GSK3β, or BLK mutants or truncations, a series of forwarding primers harboring the desired mutations were used in PCRs. The nucleotide sequences of all constructs were confirmed by DNA sequencing. […] DNA and interference RNA were transfected with Lipofectamine 3000 (Invitrogen, L3000015) according to the manufacturer’s instructions. shRNA for STYK1 #1: 5ʹ- [sequence] -3ʹ. #2: 5ʹ- [sequence] -3ʹ. siRNA for STYK1 was 5ʹ- [sequence] -3ʹ. siRNA for β-catenin was 5ʹ- [sequence] -3ʹ. siRNA for HRS was 5ʹ- [sequence] -3ʹ, siRNA for VPS24 was 5ʹ- [sequence] -3ʹ.

B1: Wnt3a: Wnt3a, R&D systems (5036-WN) (protein, UniProt P56704 19-352, looked up)
Protein Wnt-3a: SYPIWWSLAVGPQYSSLGSQPILCASIPGLVPKQLRFCRNYVEIMPSVAEGIKIGIQECQHQFRGRRWNCTTVHDSLAIFGPVLDKATRESAFVHAIASAGVAFAVTRSCAEGTAAICGCSSRHQGSPGKGWKWGGCSEDIEFGGMVSREFADARENRPDARSAMNRHNNEAGRQAIASHMHLKCKCHGLSGSCEVKTCWWSQPDFRAIGDFLKDKYDSASEMVVEKHRESRGWVETLRPRYTYFKVPTERDLVYYEASPNFCEPNPETGSFGTRDRTCNVSSHGIDGCDLLCCGRGHNARAERRREKCRCVFHWCCYVSCQECTRVYDVHTCK
For B1, the “amount of GSK3β within Rab5+ endosomes” value in assay [1] is reported as “remarkably increased the amount of GSK3β within Rab5^+ endosomes”. Also, in the assay with GSK3β in MVBs (Wnt activation, discussion summary), the “separation of GSK3β into MVBs” value is “supports the separation of GSK3β into MVBs”. For the same molecule, the “co-localization of GSK3β with Rab7 and CD63” value in the assay on GSK3β in MVBs (under Wnt3a treatment) was “detectable co-localization with Rab7 and CD63”.

B2: EGF: EGF (100 ng/mL) treatment (protein, UniProt P01133 23-1207, looked up)
Pro-epidermal growth factor: PQHWSCPEGTLAGNGNSTCVGPAPFLIFSHGNSIFRIDTEGTNYEQLVVDAGVSVIMDFHYNEKRIYWVDLERQLLQRVFLNGSRQERVCNIEKNVSGMAINWINEEVIWSNQQEGIITVTDMKGNNSHILLSALKYPANVAVDPVERFIFWSSEVAGSLYRADLDGVGVKALLETSEKITAVSLDVLDKRLFWIQYNREGSNSLICSCDYDGGSVHISKHPTQHNLFAMSLFGDRIFYSTWKMKTIWIANKHTGKDMVRINLHSSFVPLGELKVVHPLAQPKAEDDTWEPEQKLCKLRKGNCSSTVCGQDLQSHLCMCAEGYALSRDRKYCEDVNECAFWNHGCTLGCKNTPGSYYCTCPVGFVLLPDGKRCHQLVSCPRNVSECSHDCVLTSEGPLCFCPEGSVLERDGKTCSGCSSPDNGGCSQLCVPLSPVSWECDCFPGYDLQLDEKSCAASGPQPFLLFANSQDIRHMHFDGTDYGTLLSQQMGMVYALDHDPVENKIYFAHTALKWIERANMDGSQRERLIEEGVDVPEGLAVDWIGRRFYWTDRGKSLIGRSDLNGKRSKIITKENISQPRGIAVHPMAKRLFWTDTGINPRIESSSLQGLGRLVIASSDLIWPSGITIDFLTDKLYWCDAKQSVIEMANLDGSKRRRLTQNDVGHPFAVAVFEDYVWFSDWAMPSVMRVNKRTGKDRVRLQGSMLKPSSLVVVHPLAKPGADPCLYQNGGCEHICKKRLGTAWCSCREGFMKASDGKTCLALDGHQLLAGGEVDLKNQVTPLDILSKTRVSEDNITESQHMLVAEIMVSDQDDCAPVGCSMYARCISEGEDATCQCLKGFAGDGKLCSDIDECEMGVPVCPPASSKCINTEGGYVCRCSEGYQGDGIHCLDIDECQLGEHSCGENASCTNTEGGYTCMCAGRLSEPGLICPDSTPPPHLREDDHHYSVRNSDSECPLSHDGYCLHDGVCMYIEALDKYACNCVVGYIGERCQYRDLKWWELRHAGHGQQQKVIVVAVCVVVLVMLLLLSLWGAHYYRTQKLLSKNPKNPYEESSRDVRSRRPADTEDGMSSCPQPWFVVIKEHQDLKNGGQPVAGEDGQAADGSMQPTSWRQEPQLCGMGTEQGCWIPVSSDKGSCPQVMERSFHMPSYGTQTLEGGVEKPHSLLSANPLWQQRALDPPHQMELTQ
modifications: Pro-epidermal growth factor
notes: EGF (100 ng/mL) treatment
B2: the “STYK1-mediated alteration of the Wnt/β-catenin target genes C-myc, Axin2” value in the assay with CyclinD1/Axin2/C-myc was “down-regulated STYK1-mediated alteration of the Wnt/β-catenin target genes C-myc, Axin2”. Moreover, the “Wnt signaling in the 7TGC system” value in assay [2] is on record as “decreased Wnt signaling in the 7TGC system”.

For the origin of these results see PMC12209456, “Serine/threonine/tyrosine kinase 1 drives pancreatic carcinogenesis via GSK3β sequestration-mediated Wnt/β-catenin pathway hyperactivation” (Signal Transduction and Targeted Therapy, 2025).
